Results published in article PMC4770912.

Key:
[1] = target: SIRPα variant (10), three domain construct with rat CD4d3+4 tag (human); assay: SPR; as a1, CD47 at 22 uM passed over again after OX130 MAb had been passed over the immobilised SIRP proteins
[2] = target: SIRPα variant (10), three domain construct with rat CD4d3+4 tag (human); assay: SPR; BIAcore 3000; SIRP proteins captured through their rat CD4d3+4 tag on the rat CD4 MAb OX68 immobilised on a CM5 chip (about 1000 RU); human CD47 at 22 uM passed over; RU of the control rat CD4 domains 3 and 4 subtracted

Chain of SIRPα variant (10), three domain construct with rat CD4d3+4 tag (human) (main, as listed by the source mutant): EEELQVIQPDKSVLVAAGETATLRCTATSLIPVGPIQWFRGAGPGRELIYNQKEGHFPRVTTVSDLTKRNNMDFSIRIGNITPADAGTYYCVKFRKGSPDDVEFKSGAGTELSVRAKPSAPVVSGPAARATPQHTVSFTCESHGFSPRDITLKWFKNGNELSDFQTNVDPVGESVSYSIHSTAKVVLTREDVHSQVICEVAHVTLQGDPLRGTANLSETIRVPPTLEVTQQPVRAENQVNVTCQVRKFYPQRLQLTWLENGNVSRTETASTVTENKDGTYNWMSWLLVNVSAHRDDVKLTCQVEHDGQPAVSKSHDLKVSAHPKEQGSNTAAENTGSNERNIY

response units (RU) after OX130 injection [1]: 247 RU
response units (RU) [2]: 280 RU
Substance: Human CD47 (from UniProt Q08722 19-141) (ligand)
